# Changes are numbered by the printed parent chain. Names may count otherwise.
# B1: flt3-L mutant F15L (ligand)
# chain: LSGTQDCSFQHSPISSDLAVKIRELSDYLLQDYPVTVASNLQDEELCGGLWRLVLAQRWMERLKTVAGSKMQGLLERVNTEIHFVTKCAFQPPPSCLRFVQTNISRLLQETSEQLVALKPWITRQNFARCLELQCQPDSSTLPPPWSPRPLEATAPTAPQPPLLLLLLLPVGLLLLAAAWCLHWQRTRRRTPRPGEQVPPVPSPQDLLLVEH
# B2: flt3-L mutant D3G (ligand)
# chain: B1 chain with D6G, L18F
# B3: flt3-L mutant S13P (ligand)
# chain: B1 chain with S16P, L18F
# B4: flt3-L mutant F15Y (ligand)
# chain: B1 chain with L18Y
# B5: flt3-L mutant A64T (ligand)
# chain: B1 chain with L18F, A67T
# B6: flt3-L mutant R95C (ligand)
# chain: B1 chain with L18F, R98C
# B7: flt3-L mutant R55L (ligand)
# chain: B1 chain with L18F, R58L
# B8: flt3-L mutant F124L (ligand)
# chain: B1 chain with L18F, F127L
# B9: flt3-L mutant S9G (ligand)
# chain: B1 chain with S12G, L18F
# B10: flt3-L mutant V113E (ligand)
# chain: B1 chain with L18F, V116E
# B11: flt3-L mutant F124S (ligand)
# chain: B1 chain with L18F, F127S
# B12: flt3-L mutant R20C (ligand)
# chain: B1 chain with L18F, R23C
# B13: flt3-L mutant V75A (ligand)
# chain: B1 chain with L18F, V78A
# B14: flt3-L mutant S13F (ligand)
# chain: B1 chain with S16F, L18F
# B15: flt3-L mutant P90S (ligand)
# chain: B1 chain with L18F, P93S
# B16: flt3-L mutant F87L (ligand)
# chain: B1 chain with L18F, F90L
# B17: flt3-L mutant F81L (ligand)
# chain: B1 chain with L18F, F84L
# B18: flt3-L mutant R55C (ligand)
# chain: B1 chain with L18F, R58C
# B19: flt3-L mutant P10S (ligand)
# chain: B1 chain with P13S, L18F
# Molecular target: T1, flt3 on murine WWF7 cells
# T1 sequence (Q00342 whole entry, looked up): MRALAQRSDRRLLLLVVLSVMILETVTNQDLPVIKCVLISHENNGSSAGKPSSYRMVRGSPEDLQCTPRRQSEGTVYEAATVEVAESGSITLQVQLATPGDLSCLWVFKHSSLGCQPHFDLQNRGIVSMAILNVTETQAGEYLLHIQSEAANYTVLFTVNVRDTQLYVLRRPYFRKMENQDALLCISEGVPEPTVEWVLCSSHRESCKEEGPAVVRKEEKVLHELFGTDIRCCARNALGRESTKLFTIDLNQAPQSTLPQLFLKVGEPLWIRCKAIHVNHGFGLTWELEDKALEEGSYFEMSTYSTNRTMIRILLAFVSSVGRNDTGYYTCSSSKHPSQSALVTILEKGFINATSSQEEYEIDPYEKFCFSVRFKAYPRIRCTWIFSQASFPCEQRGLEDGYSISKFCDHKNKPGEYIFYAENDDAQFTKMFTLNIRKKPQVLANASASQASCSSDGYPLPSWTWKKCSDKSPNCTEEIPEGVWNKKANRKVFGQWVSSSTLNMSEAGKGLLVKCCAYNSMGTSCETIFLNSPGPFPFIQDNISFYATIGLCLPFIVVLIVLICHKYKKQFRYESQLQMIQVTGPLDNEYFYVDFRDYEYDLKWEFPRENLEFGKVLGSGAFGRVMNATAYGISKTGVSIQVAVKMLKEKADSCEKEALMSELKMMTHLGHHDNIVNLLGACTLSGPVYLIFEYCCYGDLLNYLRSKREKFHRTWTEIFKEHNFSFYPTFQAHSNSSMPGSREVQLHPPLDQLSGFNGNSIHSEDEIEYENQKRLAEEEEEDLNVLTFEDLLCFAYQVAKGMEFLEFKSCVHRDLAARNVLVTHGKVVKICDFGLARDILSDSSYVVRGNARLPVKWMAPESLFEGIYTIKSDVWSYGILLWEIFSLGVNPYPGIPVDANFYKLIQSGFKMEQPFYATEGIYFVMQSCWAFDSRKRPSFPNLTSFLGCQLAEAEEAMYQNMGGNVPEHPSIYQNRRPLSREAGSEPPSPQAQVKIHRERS
# Experiment: cell-based or functional assay
row,Binder,"Sp.Ac. MUT / Sp.Ac. WT (WWF7 cell proliferation units/ml per flt3-L ng/ml by ELISA, yeast supernatant)"
1,B1,0 ratio to wild type
2,B2,0.81 ratio to wild type
3,B3,0 ratio to wild type
4,B4,0.19 ratio to wild type
5,B5,0.09 ratio to wild type
6,B6,0.26 ratio to wild type
7,B7,0.29 ratio to wild type
8,B8,0.22 ratio to wild type
9,B9,0.13 ratio to wild type
10,B10,0.8 ratio to wild type
11,B11,0 ratio to wild type
12,B12,0.11 ratio to wild type
13,B13,0.18 ratio to wild type
14,B14,0 ratio to wild type
15,B15,0.09 ratio to wild type
16,B16,0.01 ratio to wild type
17,B17,0.06 ratio to wild type
18,B18,0.05 ratio to wild type
19,B19,0 ratio to wild type

# From patent US20020111475A1 (IMMUNEX, published 2002)
